From US20160201045A1, “Endo-xylanase and Coding Gene and Use Thereof” (SHANGHAI INSTITUTES FOR BIOLOGICAL SCIENCES CHINESE ACADEMY …, priority 2013, published 2016)
Values joined by “and” are separate entries in the source; they are usually repeats but may differ in a detail not shown here. Equal entries are not always repeated.

Legend:
Assay type in all cases: biochemical
[1] = Detection on pH tolerance; details: pH 6.5, 7.0 or 7.5, 50° C., 45 min; % of the highest activity
Method: (§1) In a 100 μl reaction system, birch xylan was added to a final concentration of 1% (w/w), and Na2HPO4/NaH2PO4 buffer (pH7.0) was added to a final concentration of 100 mM. A suitable amount of enzyme solution diluted by the abovementioned buffer was added to the reaction system for reaction at 50[…] for 10 minutes. 100 μl DNS were added to stop the reaction. For the control, 100 μl DNS were firstly added to the above reaction system before adding the enzyme solution. The reaction mixtures were subjected to a boiled water bath for 5 minutes to develop color. Absorbance value at 540 nm was detected by a microplate reader. After subtracting the absorbance value of the control from that of the sample, the enzymatic activity unit (U) was calculated based on the standard curve.
The enzyme solution was kept in buffers of different pH values (6.5, 7.0 and 7.5) or at pH 7.0 with addition of 70 mM mercaptoethanol at 50° C. for different times (15 min, 30 min, 45 min, 60 min, 75 min). Enzymatic activity was tested according to the above standard enzymatic activity detection steps (enzymatic activity was tested after reacting at pH7.0, 50° C. for 10 minutes). The specific activity value of Xyl7 obtained after storing at pH7.0, 50° C. for 0 minute and reacting at 50° C. for 10 minutes was used as a reference value, and its relative activity was defined as 100%. […]

[2] = Hydrolysis of Xyl7 on different substrates (DNS method); details: substrate 2% (w/w), pH7.0, 50, 10 minutes
Method: as §1
Various substrates with a final concentration of 2% (w/w) were treated by a suitable amount of enzymes at pH7.0 and 50[…] for 10 minutes. Enzymatic activity was tested according to the above standard enzymatic activity detection steps. […] No detectable enzymatic activity was found for the other test substrates. This was consistent to the high substrate specificity of xylanase of the GH11 Family.

[3] = Detection on temperature tolerance
Method: as §1
The Xyl7 enzyme solution was stored in a buffer having an optimum pH 7.0 at different temperatures (55° C., 50° C., 45° C.) or at 50° C. with addition of 70 mM mercaptoethan for different times (15 min, 30 min, 45 min, 60 min, 75 min). Enzymatic activity was tested according to the above standard enzymatic activity detection steps (enzymatic activity was tested after reacting at pH7.0, 50° C. for 10 minutes). The enzyme solution which was not subjected to heat treatment was used as a control. Its specific activity tested under pH 7.0, 50° C. was used as a reference value and its relative activity was defined as 100%. The relative activity of the treatment group was a ratio between the relative activity value obtained after storing at different temperatures for different times (treatment conditions) and the reference value. […] After storing at these temperatures for 45 min, the enzymatic activity decreased to be less than 50% of the maximum activity.

[4] = Specific activity of the xylanase on beech xylan (DNS method); details: pH7.0, 50° C., 10 minutes
Method: Enzymatic activity of the endo-1,4-β-xylanase was tested by a DNS method as follows:
10 g NaOH were weighed and dissolved in about 400 ml ddH2O. 10 g dinitrosalicylic acid, 2 g phenol, 0.5 g anhydrous sodium sulfite and 200 g potassium sodium tartrate tetrahydrate were weighed and dissolved in about 300 ml ddH2O. The two solutions were mixed, diluted to 1 liter and preserved in dark.
100 μl DNS were added into each of the above standard samples. The mixtures were subjected to boiled water bath for 5 minutes for developing color. Absorbance value at 540 nm was detected by a microplate reader. Standard sample 1 was a blank control. The absorbance value of the blank control was subtracted from that of each sample and then the standard curve was plotted.
as §1, with “For the control, 100 μl DNS were firstly added to the above reaction system before adding the enzyme solution. The reaction mixtures were subjected to a boiled water bath for 5 minutes to develop color.” left out, “curve. […]” for “curve.”

[5] = Residual activity under pulp bleaching conditions (alkaline pH, high temperature); details: 50-70, pH8-9, one to two hours
Method: as §1, with “curve. […]” for “curve.”

[6] = pH 7.0, % of the maximum activity

B1: Xyl7: endo-1,4-β-xylanase of 505 amino acids, SEQ ID NO:2, from termite gut metagenome, expressed in E. coli with His tag (protein)
chain: MKKLIALSFIAAFFAPLFAQGPTWTTSTIQAYNGYDYELWNQNNAGTVSMKLTGDNGSGASAVGGTFTATWSNTQNVLFRSGKKWGSSSNQNHTQIGNMSINFAATWSSTDNVKMLGVYGWAYFTSANVPTKQENGTNASFSNQIEYYIIQDRGSYNPASGGTNAKKYGSATIDGIAYDFYVCDRINQPMLTGNGNFKQFFSVPQSASAHRTSGTISVSQHFNKWHELGMKMDGPLYEVAMKVESYTGSGSSNGSATVTKNLLTIGGTTPTPSSNSGGTTSSSSRASSSSRASSSSNAAVQATTCKTPLITYPTSTVPSDPYTACFKYTDDKCYVCKVENEGEFEGNMNTCGSGWVWDGTQIDNNLRDGYWYQEVPCPAGSSSSRSSSSSVAVSSSSRSSSSSVAASSSSRSSSSSASVSSSSEETPIRVLHTIPSKFRVRSLNNGALQIESNADVVLYLYDTKGKMAQKIEAPTGSSIVKLSVPAGIYIVRNVQTKEKLRVMVR
modifications: His tag; Intestinal tract metagenome of termite
[1]
  retained activity after storing in buffer: ≥ 50%
[2]
  Specific Activity on barley dextran: 0 U/mg
  Specific Activity on carboxymethyl cellulose sodium: 0 U/mg
  Specific Activity on laminarin: 0 U/mg
  Specific Activity on locust bean gum: 0 U/mg
  Specific Activity on microcrystalline cellulose powder: 0 U/mg
[3]; pH 7.0, 50° C., 70 mM mercaptoethan added
  effect of 70 mM mercaptoethan on loss of activity during storage: decrease rate of the enzymatic activity was further reduced
[3]; [6]
  activity after storing at 50° C. and 45° C. for 45 min: less than 50%
  activity after storing at 55° C. for 15 min: less than 50%
[4]
  Specific Activity on beech xylan: 6340 U/mg and 6340 ± 48 U/mg
[4]; listed as xylanase of the present disclosure
  Specific Activity on beech xylan: higher than 6340 U/mg
[5]
  residual enzymatic activity at high temperature in alkaline environment: retain a sufficiently high enzymatic activity
